Assay results reported in article PMC2868043, “The Yeast Cell Fusion Protein Prm1p Requires Covalent Dimerization to Promote Membrane Fusion” (PLoS ONE, 2010).

Key:
[1] = target: the molecule itself; test: non-reducing SDS-PAGE and Western blot; whole cell lysate, reducing agent omitted from the sample buffer; cells induced with 10 µg/ml α-factor for 90 min (GFP alleles, anti-GFP blot) or with galactose (HA-PRM1, anti-HA blot); shows only SDS-resistant covalent dimers
[2] = target: the molecule itself; test: non-reducing SDS-PAGE + affinity purification with mass spectrometry; Prm1p purified from mating cells under native conditions by α-myc immunoprecipitation, eluted with 2% SDS, 10% bis-Tris gel, colloidal blue staining; unreduced sample analysed by mass spectrometry (data not shown)

Protein | stoichiometry N [1] | stoichiometry N [2]
Prm1-GFP (natural protein, S. cerevisiae, UniProt P53835 1-661, looked up, Prm1p, mating-specific multipass membrane protein of S. cerevisiae; monomer 73 kD; Glycosylated (sugar modifications); Forms a disulfide-linked homodimer; also called Prm1p; source: S. cerevisiae (W303 derivatives), PRM1 promoter, induced with α-factor or by mating; in whole cell lysate or Triton X-100 solubilised membranes; not shown: GFP, C-terminal, kept) MSGFKCYLQLGDRLSQIWLNKYTLVLLLAMLKLLFFSKSIQHAIEVSETYILSNCYSIDSLYSKMTDNTPHYLGIMGNYLIEKGMEETVKATLETLSLIVYASEGLVNFAIDLYLGTYACLIVSAVDGTVDVATNITEKLISLVNDTVSSVANELDTGLNDISKIINKVIKAASKVENFFTGDDDDSNMTSSIKSVNLTISALHNLYIPSSINDKLEELSAKTPDFAQVKNTTKNLISVPFNEVRKNIKAVNASNIIGDTSVLYVPPVSLDNSTGICSSNQSEILAFYSILGHVLKIATVVCITVLICFAVGAMAPVAWNEIKLWRRLCGMRDHYMLSRQDSYTSFSSENTHELKDPFRDPPIQNGQYDVIASYQQCFQTWNTRIAGWMTNLVTFGKSPENIDPKTKQKIEWVVAYMTSERALCVLGIGLLGILVCICQFVMIALLKHKISHSLTSNDGDGVQNLLKSSTAVDIENQMSLWSVQTNKYINTTETNINQEVFGWINTTTLSVNNTVATMISDIDTTLADVFNGTLLYNPMKTVVGCAIENKLYTIEKAMTWIHDKAQLHIPRINGTQIKQALAKQTDNSTIPTASSTSAATENLLENLVNDMREGLLKILRAYHRITLGELTVALVILAVWLVQLPIALVILRLRLRKATFD | 2 | –
Prm1-myc (natural protein, S. cerevisiae, UniProt P53835 1-661, looked up, Prm1p, mating-specific multipass membrane protein of S. cerevisiae; Made by replacing the GFP of the PRM1-GFP plasmid with the tag of a PRM1-myc strain, so the tag is probably C-terminal; also called Prm1p; source: S. cerevisiae (W303 derivatives), PRM1 promoter, mating cells; in Triton X-100 solubilised membranes, or purified by α-myc immunoprecipitation) MSGFKCYLQLGDRLSQIWLNKYTLVLLLAMLKLLFFSKSIQHAIEVSETYILSNCYSIDSLYSKMTDNTPHYLGIMGNYLIEKGMEETVKATLETLSLIVYASEGLVNFAIDLYLGTYACLIVSAVDGTVDVATNITEKLISLVNDTVSSVANELDTGLNDISKIINKVIKAASKVENFFTGDDDDSNMTSSIKSVNLTISALHNLYIPSSINDKLEELSAKTPDFAQVKNTTKNLISVPFNEVRKNIKAVNASNIIGDTSVLYVPPVSLDNSTGICSSNQSEILAFYSILGHVLKIATVVCITVLICFAVGAMAPVAWNEIKLWRRLCGMRDHYMLSRQDSYTSFSSENTHELKDPFRDPPIQNGQYDVIASYQQCFQTWNTRIAGWMTNLVTFGKSPENIDPKTKQKIEWVVAYMTSERALCVLGIGLLGILVCICQFVMIALLKHKISHSLTSNDGDGVQNLLKSSTAVDIENQMSLWSVQTNKYINTTETNINQEVFGWINTTTLSVNNTVATMISDIDTTLADVFNGTLLYNPMKTVVGCAIENKLYTIEKAMTWIHDKAQLHIPRINGTQIKQALAKQTDNSTIPTASSTSAATENLLENLVNDMREGLLKILRAYHRITLGELTVALVILAVWLVQLPIALVILRLRLRKATFD | – | 2
HA-Prm1p (natural protein, S. cerevisiae, UniProt P53835 1-661, looked up, Prm1p, S. cerevisiae, under control of the GAL1 promoter; also called GALPRO-HA-PRM1; source: S. cerevisiae (W303 derivative), genomic GAL1 promoter fusion, galactose induced; in whole cell lysate) MSGFKCYLQLGDRLSQIWLNKYTLVLLLAMLKLLFFSKSIQHAIEVSETYILSNCYSIDSLYSKMTDNTPHYLGIMGNYLIEKGMEETVKATLETLSLIVYASEGLVNFAIDLYLGTYACLIVSAVDGTVDVATNITEKLISLVNDTVSSVANELDTGLNDISKIINKVIKAASKVENFFTGDDDDSNMTSSIKSVNLTISALHNLYIPSSINDKLEELSAKTPDFAQVKNTTKNLISVPFNEVRKNIKAVNASNIIGDTSVLYVPPVSLDNSTGICSSNQSEILAFYSILGHVLKIATVVCITVLICFAVGAMAPVAWNEIKLWRRLCGMRDHYMLSRQDSYTSFSSENTHELKDPFRDPPIQNGQYDVIASYQQCFQTWNTRIAGWMTNLVTFGKSPENIDPKTKQKIEWVVAYMTSERALCVLGIGLLGILVCICQFVMIALLKHKISHSLTSNDGDGVQNLLKSSTAVDIENQMSLWSVQTNKYINTTETNINQEVFGWINTTTLSVNNTVATMISDIDTTLADVFNGTLLYNPMKTVVGCAIENKLYTIEKAMTWIHDKAQLHIPRINGTQIKQALAKQTDNSTIPTASSTSAATENLLENLVNDMREGLLKILRAYHRITLGELTVALVILAVWLVQLPIALVILRLRLRKATFD | 2 | –
